Laboratory results taken from paper PMC8171064.

Molecular target: Saccharomyces cerevisiae Rsm22 protein, C-terminally His6-tagged (construct MA-S17–K628-HHHHHH) (S. cerevisiae) (UniProt P36056)
Assay: SEC-MALS; pooled and concentrated first SEC peak (higher oligomeric form); Superdex 200 10/300 GL; 40 mM Tris pH 7.5, 500 mM NaCl, 5% glycerol

- stoichiometry N: 2
Substance: Saccharomyces cerevisiae Rsm22 protein, C-terminally His6-tagged (construct MA-S17–K628-HHHHHH) (from UniProt P36056 17-628) (enzyme)
